Earlier results on two substances are cited in publication PMC12799613.

What is called Kd is the constant that tells how readily two partners part at equilibrium.

For data set [1], the target named is TRPC5 (Homo sapiens) (UniProt Q9UL62).
Data set [2] deals with TRPM3 peptide (Mus musculus) (UniProt J9SQF3).
Data set [3] concerns the target GIRK2 (Kir3.2), first Gβγ binding (Mus musculus) (UniProt P48542).
Data set [4] has as its target GIRK2 (Kir3.2), fourth Gβγ binding (Mus musculus) (UniProt P48542).

Gβ1γ2, sequence (P62873 2-340): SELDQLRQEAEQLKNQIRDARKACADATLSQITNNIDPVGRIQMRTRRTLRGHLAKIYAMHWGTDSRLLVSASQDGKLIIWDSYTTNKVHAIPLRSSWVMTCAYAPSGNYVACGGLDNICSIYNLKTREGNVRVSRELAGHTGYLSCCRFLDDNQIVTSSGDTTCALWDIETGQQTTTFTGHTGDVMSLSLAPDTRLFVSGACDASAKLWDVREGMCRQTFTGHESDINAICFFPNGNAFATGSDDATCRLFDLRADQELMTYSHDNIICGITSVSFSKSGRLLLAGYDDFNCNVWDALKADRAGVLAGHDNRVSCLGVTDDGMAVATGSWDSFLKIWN
Gβ1γ2, sequence (P59768 2-68, further chain): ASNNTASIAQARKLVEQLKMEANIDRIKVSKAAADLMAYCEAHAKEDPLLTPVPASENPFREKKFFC
TRPM3 peptide (Mus musculus), sequence (J9SQF3 whole entry): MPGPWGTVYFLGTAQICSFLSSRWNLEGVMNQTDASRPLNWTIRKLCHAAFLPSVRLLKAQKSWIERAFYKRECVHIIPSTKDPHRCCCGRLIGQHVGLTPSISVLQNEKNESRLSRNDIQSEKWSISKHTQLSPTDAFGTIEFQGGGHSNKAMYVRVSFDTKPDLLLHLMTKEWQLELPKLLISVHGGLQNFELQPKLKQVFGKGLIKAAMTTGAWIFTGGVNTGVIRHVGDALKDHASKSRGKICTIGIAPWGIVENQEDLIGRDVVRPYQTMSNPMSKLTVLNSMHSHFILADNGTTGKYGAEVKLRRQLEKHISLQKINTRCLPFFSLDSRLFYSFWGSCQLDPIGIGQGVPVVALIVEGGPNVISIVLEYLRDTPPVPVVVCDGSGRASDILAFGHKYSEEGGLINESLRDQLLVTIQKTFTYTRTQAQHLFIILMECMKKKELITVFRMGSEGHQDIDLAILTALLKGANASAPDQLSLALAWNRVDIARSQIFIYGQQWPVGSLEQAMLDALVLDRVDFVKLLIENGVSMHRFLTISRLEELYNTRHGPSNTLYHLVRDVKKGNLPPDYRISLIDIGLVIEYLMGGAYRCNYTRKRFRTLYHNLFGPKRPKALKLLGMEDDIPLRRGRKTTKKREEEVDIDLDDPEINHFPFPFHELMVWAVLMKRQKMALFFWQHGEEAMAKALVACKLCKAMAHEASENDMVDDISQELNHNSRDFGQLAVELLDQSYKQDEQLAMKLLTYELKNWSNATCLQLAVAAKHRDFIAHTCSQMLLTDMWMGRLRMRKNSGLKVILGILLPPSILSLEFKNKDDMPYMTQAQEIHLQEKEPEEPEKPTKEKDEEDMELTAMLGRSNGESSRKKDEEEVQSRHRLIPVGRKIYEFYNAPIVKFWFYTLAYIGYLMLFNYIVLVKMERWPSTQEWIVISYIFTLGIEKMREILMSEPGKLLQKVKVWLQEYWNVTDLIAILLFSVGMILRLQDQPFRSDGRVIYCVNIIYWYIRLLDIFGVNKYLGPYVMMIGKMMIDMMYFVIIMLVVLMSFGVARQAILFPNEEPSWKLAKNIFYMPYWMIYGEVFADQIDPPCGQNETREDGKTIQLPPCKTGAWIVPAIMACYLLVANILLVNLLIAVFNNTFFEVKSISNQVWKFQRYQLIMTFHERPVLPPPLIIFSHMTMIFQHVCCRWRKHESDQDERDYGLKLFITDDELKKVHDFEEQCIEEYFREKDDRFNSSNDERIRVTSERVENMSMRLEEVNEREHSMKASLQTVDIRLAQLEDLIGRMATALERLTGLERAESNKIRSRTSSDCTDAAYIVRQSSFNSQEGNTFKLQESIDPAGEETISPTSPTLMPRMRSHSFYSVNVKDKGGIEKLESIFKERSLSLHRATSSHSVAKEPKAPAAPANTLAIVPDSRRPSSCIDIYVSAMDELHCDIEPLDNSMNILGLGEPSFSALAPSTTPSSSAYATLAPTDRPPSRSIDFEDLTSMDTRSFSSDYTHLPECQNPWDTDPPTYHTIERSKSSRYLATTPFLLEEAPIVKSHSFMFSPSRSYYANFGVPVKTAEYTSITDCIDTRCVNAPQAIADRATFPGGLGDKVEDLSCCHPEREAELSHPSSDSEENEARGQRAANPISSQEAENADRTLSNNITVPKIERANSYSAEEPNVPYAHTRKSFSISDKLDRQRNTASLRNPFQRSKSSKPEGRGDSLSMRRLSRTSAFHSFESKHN
Gαi3, sequence (P08754 2-354): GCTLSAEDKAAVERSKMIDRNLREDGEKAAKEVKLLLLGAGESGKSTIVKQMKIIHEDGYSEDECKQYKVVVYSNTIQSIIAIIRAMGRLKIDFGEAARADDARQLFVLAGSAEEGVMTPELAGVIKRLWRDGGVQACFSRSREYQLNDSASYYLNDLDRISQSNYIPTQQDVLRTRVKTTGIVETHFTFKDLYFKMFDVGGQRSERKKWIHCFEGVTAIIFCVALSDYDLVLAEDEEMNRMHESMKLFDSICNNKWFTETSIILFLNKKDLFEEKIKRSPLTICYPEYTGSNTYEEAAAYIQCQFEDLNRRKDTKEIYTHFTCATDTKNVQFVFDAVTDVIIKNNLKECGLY
TRPC5 (Homo sapiens), sequence (Q9UL62 whole entry): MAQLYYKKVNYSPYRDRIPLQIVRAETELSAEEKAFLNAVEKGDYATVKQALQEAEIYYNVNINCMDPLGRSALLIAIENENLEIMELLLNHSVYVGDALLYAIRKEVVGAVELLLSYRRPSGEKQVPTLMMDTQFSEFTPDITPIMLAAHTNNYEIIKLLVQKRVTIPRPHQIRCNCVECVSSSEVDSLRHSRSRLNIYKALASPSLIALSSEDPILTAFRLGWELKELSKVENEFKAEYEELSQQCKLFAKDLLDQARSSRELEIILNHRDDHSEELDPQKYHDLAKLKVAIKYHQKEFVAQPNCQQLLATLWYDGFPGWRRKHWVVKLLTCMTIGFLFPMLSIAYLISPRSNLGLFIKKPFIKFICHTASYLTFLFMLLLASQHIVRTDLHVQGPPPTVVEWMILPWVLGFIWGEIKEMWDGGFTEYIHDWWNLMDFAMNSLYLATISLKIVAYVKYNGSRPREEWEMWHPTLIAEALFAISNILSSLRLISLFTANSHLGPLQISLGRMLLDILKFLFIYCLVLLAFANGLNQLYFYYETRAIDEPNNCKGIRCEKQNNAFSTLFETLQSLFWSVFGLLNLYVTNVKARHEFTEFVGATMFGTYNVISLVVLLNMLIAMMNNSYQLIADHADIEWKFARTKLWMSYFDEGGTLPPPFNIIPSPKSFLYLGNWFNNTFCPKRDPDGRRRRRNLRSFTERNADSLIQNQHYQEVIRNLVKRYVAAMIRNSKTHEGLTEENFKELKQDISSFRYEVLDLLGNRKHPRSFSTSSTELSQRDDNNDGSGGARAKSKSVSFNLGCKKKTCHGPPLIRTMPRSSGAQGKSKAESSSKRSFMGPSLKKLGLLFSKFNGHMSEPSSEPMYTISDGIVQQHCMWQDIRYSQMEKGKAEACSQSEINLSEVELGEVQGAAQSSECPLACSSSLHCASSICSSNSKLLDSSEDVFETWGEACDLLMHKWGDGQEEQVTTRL
GIRK2 (Kir3.2), fourth Gβγ binding (Mus musculus), sequence (P48542 whole entry): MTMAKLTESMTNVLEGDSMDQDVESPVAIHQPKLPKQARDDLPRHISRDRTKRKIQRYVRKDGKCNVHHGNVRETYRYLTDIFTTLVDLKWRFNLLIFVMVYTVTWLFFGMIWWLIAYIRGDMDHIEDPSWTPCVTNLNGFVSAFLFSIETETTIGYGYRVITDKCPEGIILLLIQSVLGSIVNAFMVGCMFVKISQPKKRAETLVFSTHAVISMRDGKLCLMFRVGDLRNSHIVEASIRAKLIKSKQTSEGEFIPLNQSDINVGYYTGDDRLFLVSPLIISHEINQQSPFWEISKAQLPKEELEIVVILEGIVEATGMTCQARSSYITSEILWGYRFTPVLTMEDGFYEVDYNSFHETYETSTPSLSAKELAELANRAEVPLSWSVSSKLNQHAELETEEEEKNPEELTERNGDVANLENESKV
GIRK2 (Kir3.2), first Gβγ binding (Mus musculus), sequence (P48542 whole entry): as above

Consider Gαi3 (from UniProt P08754), for which the Kd in data set [1] was 0.91 µM.

As for Gβ1γ2 (from UniProt P62873), the Kd is 56 µM in data set [2], 1900 µM in data set [3] and 50 µM in data set [4].
